Starred links: 1 amine or outer side, 2 acyl side, 3 side chain; linkers in the order of their positions; H or OH if unused. Non-standard residues stand in square brackets, D forms with d. Groups on a side chain read outwards from the residue. No end group written: not given here. *: point of attachment. C18 diacid = O=C(O)CCCCCCCCCCCCCCCCC(=O)*; γGlu = O=C(O)[C@H](CCC(=O)[*:2])N[*:1]; Palmitoyl = CCCCCCCCCCCCCCCC(=O)*; AEEA = NCCOCCOCC(=O)O; Aib = CC(C)(N)C(=O)O
B1: SEQ ID NO: 127 (peptide)
peptide: IVLSLD[dV]PIKLK([AEEA-AEEA-γGlu-C18 diacid])QILLEQAKQK[Aib]QREQAEKNKRILERV-NH2
modifications: N-terminus assumed
SMILES: CC[C@H](C)[C@H](N)C(=O)N[C@H](C(=O)N[C@@H](CC(C)C)C(=O)N[C@@H](CO)C(=O)N[C@@H](CC(C)C)C(=O)N[C@@H](CC(=O)O)C(=O)N[C@@H](C(=O)N1CCC[C@H]1C(=O)N[C@H](C(=O)N[C@@H](CCCCN)C(=O)N[C@@H](CC(C)C)C(=O)N[C@@H](CCCCNC(=O)COCCOCCNC(=O)COCCOCCNC(=O)CC[C@H](NC(=O)CCCCCCCCCCCCCCCCC(=O)O)C(=O)O)C(=O)N[C@@H](CCC(N)=O)C(=O)N[C@H](C(=O)N[C@@H](CC(C)C)C(=O)N[C@@H](CC(C)C)C(=O)N[C@@H](CCC(=O)O)C(=O)N[C@@H](CCC(N)=O)C(=O)N[C@@H](C)C(=O)N[C@@H](CCCCN)C(=O)N[C@@H](CCC(N)=O)C(=O)N[C@@H](CCCCN)C(=O)NC(C)(C)C(=O)N[C@@H](CCC(N)=O)C(=O)N[C@@H](CCCNC(=N)N)C(=O)N[C@@H](CCC(=O)O)C(=O)N[C@@H](CCC(N)=O)C(=O)N[C@@H](C)C(=O)N[C@@H](CCC(=O)O)C(=O)N[C@@H](CCCCN)C(=O)N[C@@H](CC(N)=O)C(=O)N[C@@H](CCCCN)C(=O)N[C@@H](CCCNC(=N)N)C(=O)N[C@H](C(=O)N[C@@H](CC(C)C)C(=O)N[C@@H](CCC(=O)O)C(=O)N[C@@H](CCCNC(=N)N)C(=O)N[C@H](C(N)=O)C(C)C)[C@@H](C)CC)[C@@H](C)CC)[C@@H](C)CC)C(C)C)C(C)C
B2: SEQ ID NO: 123 (peptide)
peptide: IVLSLDVPIKLK([AEEA-AEEA-γGlu-C18 diacid])QILLEQARQK[Aib]QRAQAEKNKRILERV-NH2
modifications: N-terminus assumed
SMILES: CC[C@H](C)[C@H](N)C(=O)N[C@H](C(=O)N[C@@H](CC(C)C)C(=O)N[C@@H](CO)C(=O)N[C@@H](CC(C)C)C(=O)N[C@@H](CC(=O)O)C(=O)N[C@H](C(=O)N1CCC[C@H]1C(=O)N[C@H](C(=O)N[C@@H](CCCCN)C(=O)N[C@@H](CC(C)C)C(=O)N[C@@H](CCCCNC(=O)COCCOCCNC(=O)COCCOCCNC(=O)CC[C@H](NC(=O)CCCCCCCCCCCCCCCCC(=O)O)C(=O)O)C(=O)N[C@@H](CCC(N)=O)C(=O)N[C@H](C(=O)N[C@@H](CC(C)C)C(=O)N[C@@H](CC(C)C)C(=O)N[C@@H](CCC(=O)O)C(=O)N[C@@H](CCC(N)=O)C(=O)N[C@@H](C)C(=O)N[C@@H](CCCNC(=N)N)C(=O)N[C@@H](CCC(N)=O)C(=O)N[C@@H](CCCCN)C(=O)NC(C)(C)C(=O)N[C@@H](CCC(N)=O)C(=O)N[C@@H](CCCNC(=N)N)C(=O)N[C@@H](C)C(=O)N[C@@H](CCC(N)=O)C(=O)N[C@@H](C)C(=O)N[C@@H](CCC(=O)O)C(=O)N[C@@H](CCCCN)C(=O)N[C@@H](CC(N)=O)C(=O)N[C@@H](CCCCN)C(=O)N[C@@H](CCCNC(=N)N)C(=O)N[C@H](C(=O)N[C@@H](CC(C)C)C(=O)N[C@@H](CCC(=O)O)C(=O)N[C@@H](CCCNC(=N)N)C(=O)N[C@H](C(N)=O)C(C)C)[C@@H](C)CC)[C@@H](C)CC)[C@@H](C)CC)C(C)C)C(C)C
B3: SEQ ID NO: 12 (peptide)
peptide: FTLSLDVPTKIK([γGlu-Palmitoyl])QKLLKQEKQRKQKQQAKTNAKILARV-NH2
modifications: N-terminus assumed
SMILES: CCCCCCCCCCCCCCCC(=O)N[C@@H](CCC(=O)NCCCC[C@H](NC(=O)[C@@H](NC(=O)[C@H](CCCCN)NC(=O)[C@@H](NC(=O)[C@@H]1CCCN1C(=O)[C@@H](NC(=O)[C@H](CC(=O)O)NC(=O)[C@H](CC(C)C)NC(=O)[C@H](CO)NC(=O)[C@H](CC(C)C)NC(=O)[C@@H](NC(=O)[C@@H](N)Cc1ccccc1)[C@@H](C)O)C(C)C)[C@@H](C)O)[C@@H](C)CC)C(=O)N[C@@H](CCC(N)=O)C(=O)N[C@@H](CCCCN)C(=O)N[C@@H](CC(C)C)C(=O)N[C@@H](CC(C)C)C(=O)N[C@@H](CCCCN)C(=O)N[C@@H](CCC(N)=O)C(=O)N[C@@H](CCC(=O)O)C(=O)N[C@@H](CCCCN)C(=O)N[C@@H](CCC(N)=O)C(=O)N[C@@H](CCCNC(=N)N)C(=O)N[C@@H](CCCCN)C(=O)N[C@@H](CCC(N)=O)C(=O)N[C@@H](CCCCN)C(=O)N[C@@H](CCC(N)=O)C(=O)N[C@@H](CCC(N)=O)C(=O)N[C@@H](C)C(=O)N[C@@H](CCCCN)C(=O)N[C@H](C(=O)N[C@@H](CC(N)=O)C(=O)N[C@@H](C)C(=O)N[C@@H](CCCCN)C(=O)N[C@H](C(=O)N[C@@H](CC(C)C)C(=O)N[C@@H](C)C(=O)N[C@@H](CCCNC(=N)N)C(=O)N[C@H](C(N)=O)C(C)C)[C@@H](C)CC)[C@@H](C)O)C(=O)O
B4: SEQ ID NO: 126 (peptide)
peptide: IVLSLD[dV]PIKLK([AEEA-AEEA-γGlu-C18 diacid])QILLEQAKQK[Aib]QRAQAEKNKRILERV-NH2
modifications: N-terminus assumed
SMILES: CC[C@H](C)[C@H](N)C(=O)N[C@H](C(=O)N[C@@H](CC(C)C)C(=O)N[C@@H](CO)C(=O)N[C@@H](CC(C)C)C(=O)N[C@@H](CC(=O)O)C(=O)N[C@@H](C(=O)N1CCC[C@H]1C(=O)N[C@H](C(=O)N[C@@H](CCCCN)C(=O)N[C@@H](CC(C)C)C(=O)N[C@@H](CCCCNC(=O)COCCOCCNC(=O)COCCOCCNC(=O)CC[C@H](NC(=O)CCCCCCCCCCCCCCCCC(=O)O)C(=O)O)C(=O)N[C@@H](CCC(N)=O)C(=O)N[C@H](C(=O)N[C@@H](CC(C)C)C(=O)N[C@@H](CC(C)C)C(=O)N[C@@H](CCC(=O)O)C(=O)N[C@@H](CCC(N)=O)C(=O)N[C@@H](C)C(=O)N[C@@H](CCCCN)C(=O)N[C@@H](CCC(N)=O)C(=O)N[C@@H](CCCCN)C(=O)NC(C)(C)C(=O)N[C@@H](CCC(N)=O)C(=O)N[C@@H](CCCNC(=N)N)C(=O)N[C@@H](C)C(=O)N[C@@H](CCC(N)=O)C(=O)N[C@@H](C)C(=O)N[C@@H](CCC(=O)O)C(=O)N[C@@H](CCCCN)C(=O)N[C@@H](CC(N)=O)C(=O)N[C@@H](CCCCN)C(=O)N[C@@H](CCCNC(=N)N)C(=O)N[C@H](C(=O)N[C@@H](CC(C)C)C(=O)N[C@@H](CCC(=O)O)C(=O)N[C@@H](CCCNC(=N)N)C(=O)N[C@H](C(N)=O)C(C)C)[C@@H](C)CC)[C@@H](C)CC)[C@@H](C)CC)C(C)C)C(C)C
B5: SEQ ID NO: 125 (peptide)
peptide: IVLSLDVPIKLK([AEEA-AEEA-γGlu-C18 diacid])QILLEQARQK[Aib]QREQAEKNKRILERV-NH2
modifications: N-terminus assumed
SMILES: CC[C@H](C)[C@H](N)C(=O)N[C@H](C(=O)N[C@@H](CC(C)C)C(=O)N[C@@H](CO)C(=O)N[C@@H](CC(C)C)C(=O)N[C@@H](CC(=O)O)C(=O)N[C@H](C(=O)N1CCC[C@H]1C(=O)N[C@H](C(=O)N[C@@H](CCCCN)C(=O)N[C@@H](CC(C)C)C(=O)N[C@@H](CCCCNC(=O)COCCOCCNC(=O)COCCOCCNC(=O)CC[C@H](NC(=O)CCCCCCCCCCCCCCCCC(=O)O)C(=O)O)C(=O)N[C@@H](CCC(N)=O)C(=O)N[C@H](C(=O)N[C@@H](CC(C)C)C(=O)N[C@@H](CC(C)C)C(=O)N[C@@H](CCC(=O)O)C(=O)N[C@@H](CCC(N)=O)C(=O)N[C@@H](C)C(=O)N[C@@H](CCCNC(=N)N)C(=O)N[C@@H](CCC(N)=O)C(=O)N[C@@H](CCCCN)C(=O)NC(C)(C)C(=O)N[C@@H](CCC(N)=O)C(=O)N[C@@H](CCCNC(=N)N)C(=O)N[C@@H](CCC(=O)O)C(=O)N[C@@H](CCC(N)=O)C(=O)N[C@@H](C)C(=O)N[C@@H](CCC(=O)O)C(=O)N[C@@H](CCCCN)C(=O)N[C@@H](CC(N)=O)C(=O)N[C@@H](CCCCN)C(=O)N[C@@H](CCCNC(=N)N)C(=O)N[C@H](C(=O)N[C@@H](CC(C)C)C(=O)N[C@@H](CCC(=O)O)C(=O)N[C@@H](CCCNC(=N)N)C(=O)N[C@H](C(N)=O)C(C)C)[C@@H](C)CC)[C@@H](C)CC)[C@@H](C)CC)C(C)C)C(C)C
B6: SEQ ID NO: 124 (peptide)
peptide: IVLSLDVPIKLK([AEEA-AEEA-γGlu-C18 diacid])QILLKQARQK[Aib]QRAQAEKNKRILERV-NH2
modifications: N-terminus assumed
SMILES: CC[C@H](C)[C@H](N)C(=O)N[C@H](C(=O)N[C@@H](CC(C)C)C(=O)N[C@@H](CO)C(=O)N[C@@H](CC(C)C)C(=O)N[C@@H](CC(=O)O)C(=O)N[C@H](C(=O)N1CCC[C@H]1C(=O)N[C@H](C(=O)N[C@@H](CCCCN)C(=O)N[C@@H](CC(C)C)C(=O)N[C@@H](CCCCNC(=O)COCCOCCNC(=O)COCCOCCNC(=O)CC[C@H](NC(=O)CCCCCCCCCCCCCCCCC(=O)O)C(=O)O)C(=O)N[C@@H](CCC(N)=O)C(=O)N[C@H](C(=O)N[C@@H](CC(C)C)C(=O)N[C@@H](CC(C)C)C(=O)N[C@@H](CCCCN)C(=O)N[C@@H](CCC(N)=O)C(=O)N[C@@H](C)C(=O)N[C@@H](CCCNC(=N)N)C(=O)N[C@@H](CCC(N)=O)C(=O)N[C@@H](CCCCN)C(=O)NC(C)(C)C(=O)N[C@@H](CCC(N)=O)C(=O)N[C@@H](CCCNC(=N)N)C(=O)N[C@@H](C)C(=O)N[C@@H](CCC(N)=O)C(=O)N[C@@H](C)C(=O)N[C@@H](CCC(=O)O)C(=O)N[C@@H](CCCCN)C(=O)N[C@@H](CC(N)=O)C(=O)N[C@@H](CCCCN)C(=O)N[C@@H](CCCNC(=N)N)C(=O)N[C@H](C(=O)N[C@@H](CC(C)C)C(=O)N[C@@H](CCC(=O)O)C(=O)N[C@@H](CCCNC(=N)N)C(=O)N[C@H](C(N)=O)C(C)C)[C@@H](C)CC)[C@@H](C)CC)[C@@H](C)CC)C(C)C)C(C)C

biological target: human corticotropin-releasing factor 2α (CRF2 α receptor) (human), Q13324; assay: cell-based or functional assay
Sequence (Q13324 20-411): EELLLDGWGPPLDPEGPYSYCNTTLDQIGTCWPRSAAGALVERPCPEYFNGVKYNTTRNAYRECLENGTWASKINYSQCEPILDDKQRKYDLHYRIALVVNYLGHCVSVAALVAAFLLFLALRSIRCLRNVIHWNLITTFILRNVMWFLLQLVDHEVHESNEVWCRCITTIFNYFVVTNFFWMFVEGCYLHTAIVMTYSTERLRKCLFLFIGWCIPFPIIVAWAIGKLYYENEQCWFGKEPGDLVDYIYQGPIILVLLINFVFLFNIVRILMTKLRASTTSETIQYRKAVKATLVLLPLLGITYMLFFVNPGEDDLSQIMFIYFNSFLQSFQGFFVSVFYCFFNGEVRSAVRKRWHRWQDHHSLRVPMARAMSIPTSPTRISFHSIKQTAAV

| EC50 [nM], 0% HSA [nM] | EC50 [nM], 0.1% HSA [nM] | Binder |
| --- | --- | --- |
| 0.16 | 5.14 | B1 |
| 0.33 | 9.74 | B2 |
| 0.09 |  | B3 |
| 0.22 | 5.59 | B4 |
| 0.47 | 19.9 | B5 |
| 0.11 | 4.37 | B6 |
